In series [1] the target is T1, β-Glucosidase Glu3A.
T1 construct: cytosolic enzyme, purified as formerly reported
Description: pNPβGlu hydrolysis, A400. The series is classed as biochemical, Ruminiclostridium cellulolyticum. The note with it: competitive; substrate p-nitrophenyl-β-D-glucoside, 50 mM phosphate pH 7.0, 37°C; read-out: Mean enzyme concn (mM) ± SD^a / β-Glucosidase (Glu3A). From the text: pNPβGlu hydrolysis, A400 on β-Glucosidase Glu3A

Series [2] has as its target T2, Cellobiose phosphorylase CbpA (Ruminiclostridium cellulolyticum, UniProt B8I421).
T2 construct: gene Ccel_2109; C-terminal 6xHis tag, produced in E. coli, purified to homogeneity
T2 sequence (B8I421 1-811): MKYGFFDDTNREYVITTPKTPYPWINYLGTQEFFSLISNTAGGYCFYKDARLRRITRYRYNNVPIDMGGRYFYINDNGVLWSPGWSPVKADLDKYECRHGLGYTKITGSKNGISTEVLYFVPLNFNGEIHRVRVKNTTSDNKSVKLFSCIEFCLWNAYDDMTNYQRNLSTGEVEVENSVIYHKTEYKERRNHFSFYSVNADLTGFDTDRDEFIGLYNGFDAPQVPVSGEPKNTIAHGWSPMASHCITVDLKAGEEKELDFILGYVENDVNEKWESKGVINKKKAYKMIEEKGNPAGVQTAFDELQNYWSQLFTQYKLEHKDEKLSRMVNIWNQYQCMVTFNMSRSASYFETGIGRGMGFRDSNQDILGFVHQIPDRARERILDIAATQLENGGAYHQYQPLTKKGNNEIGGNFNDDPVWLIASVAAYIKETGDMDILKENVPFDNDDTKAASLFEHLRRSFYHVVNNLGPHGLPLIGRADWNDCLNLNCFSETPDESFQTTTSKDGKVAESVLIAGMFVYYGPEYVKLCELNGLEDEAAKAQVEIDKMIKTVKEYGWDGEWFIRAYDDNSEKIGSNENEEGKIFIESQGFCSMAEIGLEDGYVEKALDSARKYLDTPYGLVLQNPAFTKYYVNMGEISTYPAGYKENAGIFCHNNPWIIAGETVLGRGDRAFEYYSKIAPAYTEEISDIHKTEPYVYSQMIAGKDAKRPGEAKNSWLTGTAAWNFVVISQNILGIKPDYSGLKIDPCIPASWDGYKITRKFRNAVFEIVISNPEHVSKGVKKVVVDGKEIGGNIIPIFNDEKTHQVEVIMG
Description: cellobiose phosphorolysis, HPAEC-PAD. The class given is biochemical. The following applies: competitive; cellobiose 0.05 to 10 mM varied, 50 mM phosphate, pH 7.0, 37°C; read-out: Inhibitor. From the text: cellobiose phosphorolysis, HPAEC-PAD on Cellobiose phosphorylase CbpA

In series [3] the target is T3, α-Xylosidase Xyl31A (Ruminiclostridium cellulolyticum, UniProt B8I9A6).
T3 construct: gene Ccel_1004; cytosolic enzyme, purified as formerly reported
T3 sequence (B8I9A6 entry or part of it): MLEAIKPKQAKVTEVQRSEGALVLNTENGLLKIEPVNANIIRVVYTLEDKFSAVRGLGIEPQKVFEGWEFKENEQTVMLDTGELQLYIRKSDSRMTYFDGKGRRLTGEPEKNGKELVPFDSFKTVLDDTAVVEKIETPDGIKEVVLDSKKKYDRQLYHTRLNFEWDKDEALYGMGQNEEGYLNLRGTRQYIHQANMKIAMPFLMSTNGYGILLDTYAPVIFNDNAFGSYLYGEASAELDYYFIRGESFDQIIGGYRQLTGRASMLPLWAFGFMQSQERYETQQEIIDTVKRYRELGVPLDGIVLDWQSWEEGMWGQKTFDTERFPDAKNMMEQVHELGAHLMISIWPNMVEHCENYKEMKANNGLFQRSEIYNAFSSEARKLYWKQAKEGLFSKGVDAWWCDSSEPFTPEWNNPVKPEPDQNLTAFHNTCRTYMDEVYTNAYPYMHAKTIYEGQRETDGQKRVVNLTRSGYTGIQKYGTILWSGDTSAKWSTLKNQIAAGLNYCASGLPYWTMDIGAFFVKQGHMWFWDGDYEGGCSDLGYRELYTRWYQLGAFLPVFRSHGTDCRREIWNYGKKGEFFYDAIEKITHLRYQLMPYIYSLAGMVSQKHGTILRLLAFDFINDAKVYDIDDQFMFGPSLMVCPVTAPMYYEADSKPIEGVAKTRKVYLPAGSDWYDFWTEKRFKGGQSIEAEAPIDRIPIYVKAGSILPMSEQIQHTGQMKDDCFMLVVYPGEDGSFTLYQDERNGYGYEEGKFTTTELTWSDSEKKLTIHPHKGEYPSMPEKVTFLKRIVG
The experiment in a line: isoprimeverose hydrolysis, HPAEC-PAD. The series is classed as biochemical. The note with it: competitive; substrate isoprimeverose 0.5 to 8 mM, 50 mM phosphate pH 6.0, 37°C; read-out: Mean enzyme concn (mM) ± SD^a / α-Xylosidase (Xyl31A). From the text: isoprimeverose hydrolysis, HPAEC-PAD on α-Xylosidase Xyl31A

The target in series [4] is T4, β-Galactosidase Gal42A.
T4 construct: cytosolic enzyme, purified as formerly reported
Description: pNPβGal hydrolysis, A400. The following applies: substrate p-nitrophenyl-β-D-galactoside, 50 mM phosphate pH 7.0, 37°C, read-out: Mean enzyme concn (mM) ± SD^a / β-Galactosidase Gal42A. The series is classed as biochemical, Ruminiclostridium cellulolyticum. From the text: pNPβGal hydrolysis, A400 on β-Galactosidase Gal42A

Series [5] deals with T5, Galactokinase (Ruminiclostridium cellulolyticum, UniProt B8I0X2).
T5 construct: gene galK; C-terminal 6xHis tag (pET28a-3238), E. coli BL21(DE3)
T5 sequence (B8I0X2 1-397): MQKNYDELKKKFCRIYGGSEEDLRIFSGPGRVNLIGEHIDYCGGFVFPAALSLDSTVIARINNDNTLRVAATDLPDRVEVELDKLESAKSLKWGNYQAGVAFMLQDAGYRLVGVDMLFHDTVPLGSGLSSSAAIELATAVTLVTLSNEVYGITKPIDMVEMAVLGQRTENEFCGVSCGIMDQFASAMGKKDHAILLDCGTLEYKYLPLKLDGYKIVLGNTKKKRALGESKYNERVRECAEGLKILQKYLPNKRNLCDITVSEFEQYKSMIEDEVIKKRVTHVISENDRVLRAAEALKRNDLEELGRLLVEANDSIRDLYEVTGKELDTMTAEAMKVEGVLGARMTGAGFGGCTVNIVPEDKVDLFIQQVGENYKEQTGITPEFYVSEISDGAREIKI
Description: galactose phosphorylation, HPLC-RI. The class given is biochemical. The note with it: 5 mM GTP, 25 mM MgCl2, 25 mM HEPES pH 7.0, 37°C; read-out: Substrate(s) (fixed cosubstrate concn)^a. The text has this:
(§1) galactose phosphorylation, HPLC-RI on Galactokinase

Substrate in series [6]: Nc1ncnc2c1ncn2[C@@H]1O[C@H](COP(=O)(O)OP(=O)(O)OP(=O)(O)O)[C@@H](O)[C@H]1O
Description: galactose phosphorylation, HPLC-RI. The class given is biochemical, Ruminiclostridium cellulolyticum. The note with it: 100 mM galactose, 25 mM MgCl2, 25 mM HEPES pH 7.0, 37°C.
Description: as §1

Substrate in series [7]: Nc1nc2c(ncn2[C@@H]2O[C@H](COP(=O)(O)OP(=O)(O)OP(=O)(O)O)[C@@H](O)[C@H]2O)c(=O)[nH]1
The experiment in a line: galactose phosphorylation, HPLC-RI. The note with it: 100 mM galactose, 25 mM MgCl2, 25 mM HEPES pH 7.0, 37°C. The series is classed as biochemical, Ruminiclostridium cellulolyticum.
Description: as §1

Substrate in series [8]: O=P(O)(O)O[C@H]1O[C@H](CO)[C@@H](O)[C@H](O)[C@H]1O
Description: isomerization, HPAEC-PAD. The class given is biochemical, Ruminiclostridium cellulolyticum. The following applies: 25 mM HEPES pH 7.0, 37°C. From the text: isomerization, HPAEC-PAD on α-Phosphoglucomutase

Substrate in series [9]: Nc1ncnc2c1ncn2[C@@H]1O[C@H](COP(=O)(O)OP(=O)(O)OP(=O)(O)O)[C@@H](O)[C@H]1O
Description: purified protein. The series is classed as biochemical, Ruminiclostridium cellulolyticum. The following applies: 5 mM glucose, 25 mM MgCl2, 25 mM HEPES pH 7.0, 37°C, ATP tested only up to 20 mM (below Km). The text has this:
(§2) glucose phosphorylation, HPLC-RI on Hexokinase

Substrate in series [10]: Nc1nc2c(ncn2[C@@H]2O[C@H](COP(=O)(O)OP(=O)(O)OP(=O)(O)O)[C@@H](O)[C@H]2O)c(=O)[nH]1
The experiment in a line: purified protein. The series is classed as biochemical, Ruminiclostridium cellulolyticum. The following applies: 5 mM glucose, 25 mM MgCl2, 25 mM HEPES pH 7.0, 37°C.
Description: as §2

Substrate in series [11]: O=C(CO)[C@@H](O)[C@H](O)CO
Description: isomerization, HPLC-RI. The class given is biochemical, Ruminiclostridium cellulolyticum. The note with it: 10 mM MgCl2, 25 mM HEPES pH 7.0, 37°C. From the text:
isomerization, HPLC-RI on Xylose isomerase

Read-outs that look alike come from different tables or passages of the source.

As to `OC[C@H]1OC(O)[C@H](O)[C@@H](O)[C@@H]1O` (stereo partly shown) [Glucose], the figures for the Ki in series [1], in [2] and in series [3] were 3.99 ± 0.33 mM, 0.68 ± 0.04 mM and 1.83 ± 0.42 mM, respectively.
With `OC[C@H]1O[C@@H](O[C@H]2[C@H](O)[C@@H](O)C(O)O[C@@H]2CO)[C@H](O)[C@@H](O)[C@@H]1O` (stereo partly shown) [Cellobiose], the Ki in [1] is 36.3 ± 5.57 mM; in series [4] (noncompetitive), 19.3 ± 1.41 mM.
As for `OC[C@H]1OC(O)[C@H](O)[C@@H](O)[C@H]1O` (stereo partly shown) [Galactose], the Km in [5] worked out at 15.5 ± 1.8 mM. Moreover, the Ki in [4] (competitive) was determined as 2.35 ± 0.05 mM.

B1: Galactokinase (Ruminiclostridium cellulolyticum H10) (protein)
chain: MQKNYDELKKKFCRIYGGSEEDLRIFSGPGRVNLIGEHIDYCGGFVFPAALSLDSTVIARINNDNTLRVAATDLPDRVEVELDKLESAKSLKWGNYQAGVAFMLQDAGYRLVGVDMLFHDTVPLGSGLSSSAAIELATAVTLVTLSNEVYGITKPIDMVEMAVLGQRTENEFCGVSCGIMDQFASAMGKKDHAILLDCGTLEYKYLPLKLDGYKIVLGNTKKKRALGESKYNERVRECAEGLKILQKYLPNKRNLCDITVSEFEQYKSMIEDEVIKKRVTHVISENDRVLRAAEALKRNDLEELGRLLVEANDSIRDLYEVTGKELDTMTAEAMKVEGVLGARMTGAGFGGCTVNIVPEDKVDLFIQQVGENYKEQTGITPEFYVSEISDGAREIKI
notes: C-terminal 6xHis tag (pET28a-3238), E. coli BL21(DE3)
Turning to B1, the Km was determined as 13.71 ± 2.42 mM in series [6] and 0.99 ± 0.13 mM in [7]. Moreover, the kcat in series [6] was 4,853 ± 419 IU μmol^−1; in series [7], 1,704 ± 75 IU μmol^−1.

B2: α-Phosphoglucomutase (Ruminiclostridium cellulolyticum H10) (protein)
chain: MEYLSKLNFWLDNEYFDQDTKNELLSIKNNAKEVEDRFYKSLEFGTGGLRGIIGAGTNRINIYTVRVASQGLANYINQMGKQDKGIVIAYDPRFMSPEFSLEAAKVFCANGIKAYLFDELRPTPQLSFAVRYLKAAAGVVVTASHNPKQYNGYKVYGEDGGQLSIDGSNAVISEINKITDITKVNIISKEDAASKGLLQIIGSEIDDAYIEMLKKLRINKDAVSKVADTFKIVYTPLHGAGNKPVRRILAESGFKEVLVVKEQELPDSQFSTVKSPNPEERSAFELAIKLASDNNVDLIIGTDPDSDRVGVVVRKNDGEYAVLTGNQTGCLLLEYILTAMKEEGKLPANGFVVKTIVTTELARIIADFYNVELVEVLTGFKFIGEQIKLRDENGNQKYLFGFEESYGYLAGTDVRDKDAVVASMLVAEMAAYYKVKGISLYDALTNLYEKYGYFVEGISSFTLEGKDGVMKIKEALTTMRKTKYESFGGIKVKAIRDYQKSERHVIASGATEKITLPESDVLYFEMEDGSWFCVRPSGTEPKIKIYYGVSDRTLNLSQDKLEKFKAGVLDVIKPLL
notes: C-terminal 6xHis tag (pET28a-1417), E. coli BL21(DE3)
On to B2, for which, in series [8], the Km was 0.155 ± 0.055 mM and the kcat is reported as 1,768 ± 19 IU μmol^−1.

B3: Hexokinase (Ruminiclostridium cellulolyticum H10) (protein)
chain: MGSKLEIVQDVINAFEVNKESMLRTAMLFKETMEKSLNGEKTCLKMLPSYIGKPTGKEQGTFMTIDMGGTNFRCTKYKINNGNFEKVGEIKQKLINKEKNYDLTKSDSDEKQLFGFMAECIGELLEPEESLYLGNTFSFPCRQEGINDAYLIQWTKEITTSGVVGQNINKLLEQSLKEKNINVKPVAILNDTVGTLLVAMYSYQTADIGSIMGTGHNTCYLENNHPLNGQKMIVNIESGNYNVGLPVTKYDEIIDKNSQIPGAQLLEKMVSGYYMGSLLKEVCKDLYKNNALFTNEDVDIDAFFNQNFNALMVENFILYPSNTKEQYKCSIEDAEIVKRVSEAILKRTVRLVAVSHMGILFHQENSGTSVNNEHVIAIDGTIYEKMPNAPQLMKEAFREALGDDASNIEIRLVKDGSGLGAAIAAAFAVTQ
notes: C-terminal 6xHis tag (pET28a-3221), E. coli BL21(DE3)
As for B3, in series [9], the Km is on record as 32.2 ± 7.4 mM and the kcat is given as 8,781 ± 1,418 IU μmol^−1. Also, in [10], the Km was 0.40 ± 0.07 mM and the kcat is 11,160 ± 543 IU μmol^−1.

B4: Xylose isomerase (Ruminiclostridium cellulolyticum H10) (protein)
chain: MSEVFSGISNIKFEGSGSDNPLAFKYYDPKAVIGGKTMEEHLRFAVAYWHTFAAPGADMFGAGSYVRPWNTMSDPLEIAKYKVEANFEFIEKLGAPFFAFHDRDIAPEGDTLAETNKNLDTIVSVIKDRMKSSPVKLLWGTTNAFGNPRFMHGASTSPNADIFAYAAAQVKKAMEITKELGGENYVFWGGREGYETLLNTDMKLELDNLARFLKMAVDYAKEIGFDGQFLIEPKPKEPTKHQYDFDTATVIGFLKTYGLDPYFKMNIEANHATLAGHTFQHELAMCRINDMLGSIDANQGDVMLGWDTDQFPTNLYDATLAMVEVLKAGGLKKGGLNFDSKVRRGSFEPSDLFYGHIAGMDTFAKGLIIANKIVEDGKFDAFVADRYSSYTNGIGKDIVEGKVGFKELEQYALTAKIQNKSGRQEMLEALLNQYILETK
notes: C-terminal 6xHis tag (plasmid printed as pET28a-3439), E. coli BL21(DE3)
B4: in series [11], the Km stood at 2.0 ± 0.2 mM and the kcat stood at 63.5 ± 1.8 IU μmol^−1.

These data come from PMC8576529, “Handling Several Sugars at a Time: a Case Study of Xyloglucan Utilization by Ruminiclostridium cellulolyticum” (mBio, 2021).
